Earlier results on one substance are cited in paper PMC10586765.

The series deals with UBL4A (Homo sapiens) (UniProt P11441). The series is described as follows: surface plasmon resonance.
Sequence of UniProt P11441 (P11441 whole entry): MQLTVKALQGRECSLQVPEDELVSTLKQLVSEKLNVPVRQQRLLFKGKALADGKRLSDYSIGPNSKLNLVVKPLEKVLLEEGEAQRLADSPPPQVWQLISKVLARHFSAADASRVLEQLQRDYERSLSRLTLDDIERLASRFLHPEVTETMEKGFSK

BAG6 (from UniProt P46379): the Kd is 2.2 nM.
